According to the DeepSol protein solubility set:

Experiment: soluble on expression in E. coli; label from the status in PepcDB or PDB records

Sequence | soluble on expression in E. coli
MTTAARRPAPTTAGAGWDAGVGALVNPSRRRGGTLRLVSSADVDSLDPARTYYVWVWLLQRLLNRTLMAYPTDPGPAGLVPAPDLAEGPGEVSDGGRTWTYRLRRGLRYDDGTPITSDDVRHAVQRVFAQDVLPGGPTYLIPLLDDPERPYPGPYRTDEPLRSVLTPDEHTIVFRLTRPFSDFDHLMAQPCAAPVPRRSDTGADYGRDPRSSGPYRVARHEPDTLLHLERNPHWDRATDPIRPALPDRVELTIGLDVDVLDARLIAGEFDINLEGRGLQHAAQRRATADEVLRSHTDNPRTSFLHFVAMQPHIPPFDNVHVRRAVQYAADKILLQDARGGPVNGGDLTTALFPPTLPAHQDLDLYPTGPDLRGDLDAARAELAAAGLPDGFRAVIGTQRGKFRLVADAVVESLARVGIELTVKELDVATYFSLGAGHPETVREHGLGLLVTDWGADFPTEYGFLAPLVDGRQIKRNGGNWNLPELDDPEVNALIDETLHTTDPAARAELWRAVERRVMEHAVLLPLVHDKTLHFRNPWVTNVYVHPAFGLYDIQAMGLAEED | soluble
MTTTMSTLPVVLVDEILARVPITSLRSLRSTCKKWEASSKTNLVGGKATARKSSHVGFILIGDKICSMKLDLNGGDDFVDTSVNQVSAFDGFAISQLFHCDGLLFCISNNHYSNYTLMVCNMYLGETRLIQNRSLFESYQNFCSYAFGYDSSKNRNHKILRNNSVSGGYEIYSLKSDSWKDLNVDLEKSIHLWRLGSVSLKGNAYFRVIKVIEEGVWEYNLLCFDFTRESFGKLLSLPFESLGDEGEGIMVISCVRDDHLAVLYQRDTLGIWISTEIEPNKVSWREFLQVDLATLDGFPDVFIAGRFIVDEEKQVVVVFGQETELDLNHGNAFIFGRDGYFTSFTVGDAPPEDFTSYVPSLVSLQIDKTGKRKARDD | soluble
MKRYGNLYQEIINFENILIASRQAQKSKRFRDNVLDFNYHLETELIKLQKHLTDKTYQPGAYRTFRLTNPKSRLISAAPYRDRVVHHALCNIIVPIFERAFVADSYANRIGFGTHRALKKFTHSARNSPYVLQCDIRKYFPSIDHIILKELIRRKIKCPDTLWLIDTIIDNSNEQETVIDYFAGDDLLSPITRRKGLPIGNLTSQFFANIYLNGFDKIIKEELKISKYVRYVDDFALFSDDRELLADARLAIEAYLAELRLKIHPIKSQLFETKIGATFLGFRIFSHKIRVRNSNLHQARRRLKRLKTDYAQGKLELNQVTQSMRSWIAHLEHGDTWRLRKQIFTSLHFRRKLEHHHHHH | soluble
MAGLPDQRLANEALKRGDTVTAQQNYQQLAELGYSEAQVGLADIQVGTRDPAQIKQAEATYRAAADTSPRAQARLGRLLAAKPGATEAEHHEAESLLKKAFANGEGNTLIPLAMLYLQYPHSFPNVNAQQQISQWQAAGYPEAGLAQVLLYRTQGTYDQHLDDVERICKAALNTTDICYVELATVYQKKQQPEQQAELLKQMEAGVSRGTVTAQRVDSVARVLGDATLGTPDEKTAQALLEKIAPGYPASWVSLAQLLYDFPELGDVEQMMKYLDNGRAADQPRAELLLGKLYYEGKWVPADAKAAEAHFEKAVGREVAADYYLGQIYRRGYLGKVYPQKALDHLLTAARNGQNSADFAIAQLFSQGKGTKPDPLNAYVFSQLAKAQDTPEANDLATQLEAPLTPAQRAEGQRLVQQELAARGTLAQSTLQLHALQEEDGEESLLEHHHHHH | soluble
MSLSLPLFYAPDIEQSDRLPDDEAGHILRVLRMQAGDRLRLTDGRGSFFDAVIETADRKSCYVSVCGQESWQKPWRDRITIAIAPTKQSERMEWMLEKLVEIGVDEVVFIESEHSERRRIKAERLERIAISAMKQSLKASFPVIRVNIPIQTVIADTPKAAVRLIAYVDEAVRAEITQGRGYPSDFYHVGQDVLILIGPEGDFSPSEVESALLAGFAPVSLGESRLRTETAGLVACQWIHTLQACYRIGEGHHHHHH | soluble
ATYAAASSALVPRGSHMYAPKLQGPVAVYTWEGNQVNITCEVFAYPSATISWFRDGQLLPSSNYSNIKIYNTPSASYLEVTPDSENDFGNYNCTAVNRIGQESLEFILVQADTPSSPSIDQVEPYSSTAQVQFDEPEATGGVPILKYKAEWRAVGEEVWHSKWYDAKEASMEGIVTIVGLKPETTYAVRLAALNGKGLGEISAASEFKTQPVQGE | soluble
MEVDTSSSSSSEDECDPSSPSTAYIHSASVRLSVGTEEAARTVADVIKIDKEPRRSGARREVCSEGEFVVIKIESKDPKSLSKSIANAVDMIDLSVKTIKLCENLGKSKENGLKRKLSNGSQA | not soluble
MGSDKIHHHHHHMETRNLQRNPILLVHGITDTEAVFDQMAAYLRQMGWTVYTLNLVPNNGEAPLNVLAQQVADYVAANITPEQPFDLVGFSMGGIVSRYYVQRLGGISHVQRFVTISSPHYGTVIAYASQRPGCVQMRPNSLFLQDLNHDVQMLEELNFTSIWTPYDLMIVPTHSSKMPVGKELSIPVALHSWMLRDVRSIEAVAAALAEPINCDRRFEYIPNSSIHN | not soluble
MSVKISGKDYAGMYGPTKGDRVRLADTDLIIEIEEDYTVYGDECKFGGGKSIRDGMGQSPSAARDDKVLDLVITNAIIFDTWGIVKGDIGIKDGKIAGIGKAGNPKVMSGVSEDLIIGASTEVITGEGLIVTPGGIDTHIHFICPQQIETALFSGITTMIGGGTGPADGTNATTCTPGAFNIRKMLEAAEDFPVNLGFLGKGNASFETPLIEQIEAGAIGLKLHEDWGTTPKAIDTCLKVADLFDVQVAIHTDTLNEAGFVENTIAAIAGRTIHTYHTEGAGGGHAPDIIKIASRMNVLPSSTNPTMPFTVNTLDEHLDMLMVCHHLDSKVKEDVAFADSRIRPETIAAEDILHDMGVFSMMSSDSQAMGRVGEVIIRTWQTAHKMKLQRGALPGEKSGCDNIRAKRYLAKYTINPAITHGISQYVGSLEKGKIADLVLWKPAMFGVKPEMIIKGGFIIAGRMGDANASIPTPQPVIYKNMFGAFGKAKYGTCVTFVSKASLENGVVEKMGLQRKVLPVQGCRNISKKYMVHNNATPEIEVDPETYEVKVDGEIITCEPLKVLPMAQRYFLF | not soluble
MLEFEQGFNHLATLKVIGVGGGGNNAVNRMIDHGMNNVEFIAINTDGQALNLSKAESKIQIGEKLTRGLGAGANPEIGKKAAEESREQIEDAIQGADMVFVTSGMGGGTGTGAAPVVAKIAKEMGALTVGVVTRPFSFEGRKRQTQAAAGVEAMKAAVDTLIVIPNDRLLDIVDKSTPMMEAFKEADNVLRQGVQGISDLIAVSGEVNLDFADVKTIMSNQGSALMGIGVSSGENRAVEAAKKAISSPLLETSIVGAQGVLMNITGGESLSLFEAQEAADIVQDAADEDVNMIFGTVINPELQDEIVVTVIATGFDDKPTSHGRKSGSTGFGTSVNTSSNATSKDESFTSNSSNAQATDSVSERTHTTKEDDIPSFIRNREERRSRRTRR | not soluble
MEFKLHNGSGGLCCKSCSRQDKKLNTYDWLADIPGNAEESDMVEVQFKNTRKGYYRNSNKIKLEKGDIVAVEATPGHDIGTVTLTGRLVPLQMKKANFKQDAEIKRIYRKAKAVDMEKYEEAKAKEHTTMIRARQIAASLNLDMKIGDVEYQGDGNKAIFYYIADERVDFRQLIKVLAEAFRVRIEMKQIGARQEAGRIGGIGPCGRELCCATWMTSFVSVSTSAARYQDISLNPQKLAGQCAKLKCCLNYEVDCYVEAQKRLPSREIELETKDGTYYFFKADILSNQISYSTDKNFAANLVTISGKRAFEVIGLNKRGIKPDSLLEAERKPEPKKPVDLLEQESLTRFDRDRRRNAKDGNGKDEGGNGNRKKKKKNNNHPQQATNGETQSSQPTPINAQENNGSQPVQNQQRTRGERPKNNNRNNNQPRKNNESREPRSNENRETRKNEPREQRPPREPRGPRNNEQPKRIEKAQENEKPAQELEHHHHHH | not soluble
MYRVFECFDELIDILEKSTGVPMTSNCMVPRHHMLALIDEARNALPNEIDDAQDVIDQQDEILRGAQERARTTIDEANEEARRTVTQSREEADALVADAEEHAERVVRQAQDEADRLVDGARREADDTVNRAQAEAERLIASGNDQYQRSVDDGLAEQQRLVSEAEVVRRANEEAHRVVDAAHADSNRLRKECDTFVENKLADLEESLSSTLRTISRDRAALRRGAGASGGGNHSQS | not soluble
